Source: US20220289830A1 (STAIDSON BEIJING BIOPHARMACEUTICALS, published 2022)

How the values were obtained:
[1] = biological target: T1, recombinant Pseudomonas aeruginosa PcrV, full-length (PAO), His-tagged (Pseudomonas aeruginosa); test: BLI
[2] = biological target: T1, recombinant Pseudomonas aeruginosa …; test: SPR (BIACORE)
[3] = biological target: T2, native PcrV on live Pseudomonas aeruginosa (strains O6-57/66, O11-PA103, O1-52/66, O16-177/81) (Pseudomonas aeruginosa); test: cell-based or functional assay
[4] = biological target: T2, native PcrV on live Pseudomonas …; test: cell-based or functional assay; remark: listed apart in the source
[5] = biological target: T2, native PcrV on live Pseudomonas …; test: cell-based or functional assay; remark: listed apart in the source
[6] = biological target: T2, native PcrV on live Pseudomonas …; test: cell-based or functional assay; remark: listed apart in the source
[7] = biological target: T1, recombinant Pseudomonas aeruginosa …; test: ELISA, PcrV coated on the plate, goat anti-human Fc-AP detection

B1: 8C1 (antibody, V domains shown)
VH: EVQLLESGGGLVQPGGSLRLSCTASGFTFSDNHMSWVRQAPGKGLDWVSGISESGGSTNYADSVKGRFSTSRDNSKSTLYLDMNSLRAEDTAIYYCAKGRFSTNSAHFFRAVYGMDVWGQGTAVTVSS
VL: DIQLTQSPSSLSASVGDRVTITCRASQGISSYLAWYQQKPGKAPKLLIYAASTLQSGVPSRFSGSGSGTDFTLTISSLQPEDFATYYCQQLSSYPLTFGGGTKVEIK
notes: also called optimized anti-PcrV mAb clone 8C1
Kd [1]: 0.33 nM
Kd [2]: 0.0316 nM
RBC lysis assay IC50 (P. aeruginosa strain 57/66(O6)) [3]: 0.12 µg/mL
A549 cytotoxicity assay IC50 (P. aeruginosa strain PA103(O11)) [4]: 1.94 µg/mL
RBC lysis Average IC50 over the three strains [5]: 0.266 µg/mL
RBC lysis IC50, strain O1-52/66 [5]: 0.424 µg/mL
RBC lysis IC50, strain O6-57/66 [5]: 0.121 µg/mL
RBC lysis IC50, strain O16-177/81 [5]: 0.252 µg/mL
A549 cell lysis Average IC50 over the strains [6]: 1.05 µg/mL
A549 cell lysis IC50, strain O6-57/66 [6]: 0.721 µg/mL
A549 cell lysis IC50, strain O11-PA103 [6]: 1.54 µg/mL
A549 cell lysis IC50, strain O16-177/81 [6]: 0.881 µg/mL
EC50 [7]: 0.111 µg/mL
